Assay results from US20200024330A1.

Assays:
[1] = molecular target: HIV-1 Env of isolate 92RW008 (HIV-1); experiment: cell-based or functional assay
[2] = molecular target: HIV-1 Env of isolate 92UG031 (HIV-1); experiment: cell-based or functional assay
[3] = molecular target: HIV-1 Env of isolate 92UG037 (HIV-1); experiment: cell-based or functional assay
[4] = molecular target: HIV-1 Env of isolate 92WR009 (HIV-1); experiment: cell-based or functional assay
[5] = molecular target: HIV-1 Env of isolate 92WR021 (HIV-1); experiment: cell-based or functional assay
[6] = molecular target: HIV-1 Env of isolate 92WR024 (HIV-1); experiment: cell-based or functional assay
[7] = molecular target: HIV-1 Env of isolate 92WR026 (HIV-1); experiment: cell-based or functional assay
[8] = molecular target: HIV-1 Env of isolate 93WR029 (HIV-1); experiment: cell-based or functional assay
[9] = molecular target: HIV-1 Env of isolate 94KE105 (HIV-1); experiment: cell-based or functional assay
[10] = molecular target: HIV-1 Env of isolate 94UG103 (HIV-1); experiment: cell-based or functional assay
[11] = molecular target: HIV-1 Env of isolate CMU02 (HIV-1); experiment: cell-based or functional assay
[12] = molecular target: HIV-1 Env of isolate MGRM-A-002 (HIV-1); experiment: cell-based or functional assay
[13] = molecular target: HIV-1 Env of isolate MGRM-A-003 (HIV-1); experiment: cell-based or functional assay
[14] = molecular target: HIV-1 Env of isolate MGRM-A-005 (HIV-1); experiment: cell-based or functional assay
[15] = molecular target: HIV-1 Env of isolate MGRM-A-006 (HIV-1); experiment: cell-based or functional assay
[16] = molecular target: HIV-1 Env of isolate MGRM-A-007 (HIV-1); experiment: cell-based or functional assay
[17] = molecular target: HIV-1 Env of isolate MGRM-A-011 (HIV-1); experiment: cell-based or functional assay
[18] = molecular target: HIV-1 Env of isolate MGRM-A-012 (HIV-1); experiment: cell-based or functional assay
[19] = molecular target: HIV-1 Env of isolate MGRM-A-013 (HIV-1); experiment: cell-based or functional assay
[20] = molecular target: HIV-1 Env of isolate MGRM-A-014 (HIV-1); experiment: cell-based or functional assay
[21] = molecular target: HIV-1 Env of isolate MGRM-AE-001 (HIV-1); experiment: cell-based or functional assay
[22] = molecular target: HIV-1 Env of isolate MGRM-AE-002 (HIV-1); experiment: cell-based or functional assay
[23] = molecular target: HIV-1 Env of isolate MGRM-AE-003 (HIV-1); experiment: cell-based or functional assay
[24] = molecular target: HIV-1 Env of isolate VLGCA1 (HIV-1); experiment: cell-based or functional assay
[25] = molecular target: Env of the clade AE HIV-1 pseudoviruses of the cross-clade 162-pseudovirus panel (n = 10); experiment: cell-based or functional assay
[26] = molecular target: HIV-1 92BR020 envelope glycoprotein (Env) (HIV-1); experiment: cell-based or functional assay
[27] = molecular target: HIV-1 92RW020 envelope glycoprotein (Env) (HIV-1); experiment: cell-based or functional assay
[28] = molecular target: HIV-1 93IN905 envelope glycoprotein (Env) (HIV-1); experiment: cell-based or functional assay
[29] = molecular target: HIV-1 93UG077 envelope glycoprotein (Env) (HIV-1); experiment: cell-based or functional assay
[30] = molecular target: HIV-1 94UG103 envelope glycoprotein (Env) (HIV-1); experiment: cell-based or functional assay
[31] = molecular target: HIV-1 APV13 envelope glycoprotein (Env) (HIV-1); experiment: cell-based or functional assay
[32] = molecular target: HIV-1 APV17 envelope glycoprotein (Env) (HIV-1); experiment: cell-based or functional assay
[33] = molecular target: HIV-1 APV6 envelope glycoprotein (Env) (HIV-1); experiment: cell-based or functional assay
[34] = molecular target: HIV-1 JRCSF envelope glycoprotein (Env) (HIV-1) (UniProt P20871); experiment: cell-based or functional assay
[35] = molecular target: HIV-1 MGRM-A-010 envelope glycoprotein (Env) (HIV-1); experiment: cell-based or functional assay
[36] = molecular target: HIV-1 MGRM-C-027 envelope glycoprotein (Env) (HIV-1); experiment: cell-based or functional assay
[37] = molecular target: HIV-1 MGRM-C-028 envelope glycoprotein (Env) (HIV-1); experiment: cell-based or functional assay
[38] = molecular target: HIV-1 NL43 envelope glycoprotein (Env) (HIV-1); experiment: cell-based or functional assay
[39] = molecular target: HIV-1 Env of isolate 93IN905 (HIV-1); experiment: cell-based or functional assay
[40] = molecular target: JR-FL gp120 ΔV3 (HIV-1 (isolate JR-FL)); experiment: ELISA on coated gp120; EC50 by nonlinear regression

Binder | IC50 (µg/mL), pseudovirus neutralization [1] | IC50 (µg/mL), pseudovirus neutralization [2] | IC50 (µg/mL), pseudovirus neutralization [3] | IC50 (µg/mL), pseudovirus neutralization [4] | IC50 (µg/mL), pseudovirus neutralization [5] | IC50 (µg/mL), pseudovirus neutralization [6] | IC50 (µg/mL), pseudovirus neutralization [7] | IC50 (µg/mL), pseudovirus neutralization [8] | IC50 (µg/mL), pseudovirus neutralization [9] | IC50 (µg/mL), pseudovirus neutralization [10] | IC50 (µg/mL), pseudovirus neutralization [11] | IC50 (µg/mL), pseudovirus neutralization [12] | IC50 (µg/mL), pseudovirus neutralization [13] | IC50 (µg/mL), pseudovirus neutralization [14] | IC50 (µg/mL), pseudovirus neutralization [15] | IC50 (µg/mL), pseudovirus neutralization [16] | IC50 (µg/mL), pseudovirus neutralization [17] | IC50 (µg/mL), pseudovirus neutralization [18] | IC50 (µg/mL), pseudovirus neutralization [19] | IC50 (µg/mL), pseudovirus neutralization [20] | other results
PGT-127 (antibody, V domains shown) VH: QPQLQESGPGLVEASETLSLTCTVSGDSTGRCNYFWGWVRQPPGKGLEWIGSLSHCRSYYNTDWTYHNPSLKSRLTISLDTPKNQVFLRLTSVTAADTATYYCARFGGEVLVYRDWPKPAWVDLWGRGTLVVTVS VL: QSALTQPPSASGSPGQSITISCTGTSNNFVSWYQQYPGKAPKLVIYEVNKRPSGVPDRFSGSKSGSTASLTVSGLQADDEGVYYCSSLVGNWDVIFGGGTKLTVL | 0.012 µg/mL | > 50 µg/mL | 0.014 µg/mL | > 50 µg/mL | 0.011 µg/mL | > 50 µg/mL | 0.024 µg/mL | > 50 µg/mL | 0.023 µg/mL | 0.017 µg/mL | > 50 µg/mL | 9.42 µg/mL | > 50 µg/mL | > 50 µg/mL | > 50 µg/mL | > 50 µg/mL | > 50 µg/mL | 0.105 µg/mL | 0.029 µg/mL | 0.04 µg/mL | IC50 (µg/mL), pseudovirus neutralization [21]: > 50 µg/mL; IC50 (µg/mL), pseudovirus neutralization [22]: > 50 µg/mL; IC50 (µg/mL), pseudovirus neutralization [23]: > 50 µg/mL; IC50 (µg/mL), pseudovirus neutralization [24]: > 50 µg/mL
PGT-125 (antibody, V domains shown) VH: QSQLQESGPRLVEASETLSLTCNVSGESTGACTYFWGWVRQAPGKGLEWIGSLSHCQSFWGSGWTFHNPSLKSRLTISLDTPKNQVFLKLTSLTAADTATYYCARFDGEVLVYNHWPKPAWVDLWGRGIPVTVSS VL: QSALTQPPSASGSPGQSITISCNGTATNFVSWYQQFPDKAPKLIIFGVDKRPPGVPDRFSGSRSGTTASLTVSRLQTDDEAVYYCGSLVGNWDVIFGGGTTLTVL | 0.004 µg/mL | > 50 µg/mL | 0.005 µg/mL | 0.144 µg/mL | 0.005 µg/mL | 35.5 µg/mL | 0.007 µg/mL | > 50 µg/mL | 0.004 µg/mL | 0.008 µg/mL | > 50 µg/mL | 0.013 µg/mL | > 50 µg/mL | > 50 µg/mL | > 50 µg/mL | > 50 µg/mL | > 50 µg/mL | 0.177 µg/mL | 0.014 µg/mL | 13.9 µg/mL | Median IC50 against viruses neutralized with an IC50 <50 µg/ml [25]: 0.03 µg/mL; IC50 neutralization [26]: 0.0214 µg/mL; IC50 neutralization [27]: 0.0028 µg/mL; IC50 neutralization [28]: 0.0137 µg/mL; IC50 neutralization [29]: 0.0262 µg/mL; IC50 neutralization [30]: 0.0124 µg/mL; IC50 neutralization [31]: 0.0128 µg/mL; IC50 neutralization [32]: 7.31 µg/mL; IC50 neutralization [33]: 0.0359 µg/mL; IC50 (µg/mL), pseudovirus neutralization [21]: 2.95 µg/mL; IC50 (µg/mL), pseudovirus neutralization [22]: > 50 µg/mL; IC50 (µg/mL), pseudovirus neutralization [23]: 0.092 µg/mL; IC50 (µg/mL), pseudovirus neutralization [24]: 0.078 µg/mL; IC50 neutralization [34]: 0.006 µg/mL; IC50 neutralization [35]: 0.0055 µg/mL; IC50 neutralization [36]: > 10 µg/mL; IC50 neutralization [37]: 5.78 µg/mL; IC50 neutralization [38]: > 10 µg/mL
PGT-135 (antibody, V domains shown) VH: QLQMQESGPGLVKPSETLSLSCTVSGDSIRGGEWGDKDYHWGWVRHSAGKGLEWIGSIHWRGTTHYKESLRRRVSMSIDTSRNWFSLRLASVTAADTAVYFCARHRHHDVFMLVPIAGWFDVWGPGVQVTVSS VL: EIVMTQSPDTLSVSPGETVTLSCRASQNINKNLAWYQYKPGQSPRLVIFETYSKIAAFPARFVASGSGTEFTLTINNMQSEDVAVYYCQQYEEWPRTFGQGTKVDIK | – | – | – | – | – | – | – | – | – | – | – | – | – | – | – | – | – | – | – | – | IC50 neutralization [26]: 0.104 µg/mL; IC50 neutralization [27]: 0.157 µg/mL; IC50 neutralization [28]: 0.0183 µg/mL; IC50 neutralization [29]: > 10 µg/mL; IC50 neutralization [30]: > 10 µg/mL; IC50 neutralization [31]: 0.545 µg/mL; IC50 neutralization [32]: > 10 µg/mL; IC50 neutralization [33]: > 10 µg/mL; Primary Neutralization Index (B cell culture well 5343 B8) [39]: 43; Primary Neutralization Index (B cell culture well 5344 E16) [39]: 2.3; IC50 neutralization [34]: 0.113 µg/mL; IC50 neutralization [35]: > 10 µg/mL; IC50 neutralization [36]: > 10 µg/mL; IC50 neutralization [37]: 2.16 µg/mL; IC50 neutralization [38]: 6.79 µg/mL; EC50 [40]: 0.2 µg/mL
